Reference: the supplement of paper PMC7125110
± gives the standard error. This sample holds only a part of the variants without activity.

B1: glmS ribozyme (parent)
chain: AUAAAAGCGCCAGAACUACAGAAAUGUAGUUGACGAGGAGGAGGUUUAUCGAAUUUUCGGCGGAUGCCUCCAAA

Tests used:
Details in all cases: with glucosamine-6-phosphate
glucosamine-6-phosphate [1] = variants of: B1; assay: self-cleavage kobs at 40 uM GlcN6P; higher = faster cleavage; RNA array
In short: (§1)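 Tracking of barcoded ribozyme variants used a hybridised Cy3 probe at 37 °C, after in situ transcription by E. coli RNA polymerase on sequenced MiSeq chips. The flowed solution held 40 μM to 10 mM glucosamine-6-phosphate in HEPES/KCl/Mg(OAc)2 buffer, and imaging ran over ~14 h. kobs was taken from exponential decay fits of normalised per-tile medians, and kcat and KM from weighted Michaelis–Menten fits.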

glucosamine-6-phosphate [2] = variants of: B1; assay: self-cleavage kobs at 640 uM GlcN6P; higher = faster cleavage; RNA array
In short: as §1

glucosamine-6-phosphate [3] = variants of: B1; assay: self-cleavage kobs at 160 uM GlcN6P; higher = faster cleavage; RNA array
In short: as §1

glucosamine-6-phosphate [4] = variants of: B1; assay: self-cleavage kobs at 10000 uM GlcN6P; higher = faster cleavage; RNA array
In short: as §1

glucosamine-6-phosphate [5] = variants of: B1; assay: self-cleavage kobs at 2500 uM GlcN6P; higher = faster cleavage; RNA array
In short: as §1

Variant: AUAAAAGCGCCAGAACUACAGAAAUGUAGUUGACGAGGAGGAGGUUUAUCGAAUUUUCGACGGCUGCCUCCAAA
- self-cleavage kobs at 40 uM GlcN6P (glucosamine-6-phosphate [1]): < 1e-05 s⁻¹
- self-cleavage kobs at 640 uM GlcN6P (glucosamine-6-phosphate [2]): < 1e-05 s⁻¹

Variant: AUAAAAGCGCCAGAACUACAGAAAUGUAGUUGACGAGGAGGAGGUUUAUCGAAUUUUCGGAUGAUGCCUCCAAA
- self-cleavage kobs at 40 uM GlcN6P (glucosamine-6-phosphate [1]): < 1e-05 s⁻¹
- self-cleavage kobs at 160 uM GlcN6P (glucosamine-6-phosphate [3]): < 1e-05 s⁻¹
- self-cleavage kobs at 640 uM GlcN6P (glucosamine-6-phosphate [2]): < 1e-05 s⁻¹
- self-cleavage kobs at 10000 uM GlcN6P (glucosamine-6-phosphate [4]): < 1e-05 s⁻¹

Variant: AUAAAAGCGCCAGAACUACAGAAAUGUAGUUGACGAGGAGGAGGUUUAUCGAAUUUUCGCCGGAUUCCUCCAAA
- self-cleavage kobs at 40 uM GlcN6P (glucosamine-6-phosphate [1]): < 1e-05 s⁻¹
- self-cleavage kobs at 640 uM GlcN6P (glucosamine-6-phosphate [2]): < 1e-05 s⁻¹
- self-cleavage kobs at 2500 uM GlcN6P (glucosamine-6-phosphate [5]): < 1e-05 s⁻¹

Variant: AUAAAAGCGCCAGAACUACAGAAAUGUAGUUGACGAGGAGGAGGUUUAUCGAAUUUUCGGCAGAUGUCUCCAAA
- self-cleavage kobs at 40 uM GlcN6P (glucosamine-6-phosphate [1]): < 1e-05 s⁻¹
- self-cleavage kobs at 2500 uM GlcN6P (glucosamine-6-phosphate [5]): < 1e-05 s⁻¹
- self-cleavage kobs at 10000 uM GlcN6P (glucosamine-6-phosphate [4]): < 1e-05 s⁻¹

Variant: AUAAAAGCGCCAGAACUACAGAAAUGUAGUUGACGAGGAGGAGGUUUAUCGAAUUUUCGCCGGAGGCCUCCAAA
- self-cleavage kobs at 40 uM GlcN6P (glucosamine-6-phosphate [1]): < 1e-05 s⁻¹
- self-cleavage kobs at 160 uM GlcN6P (glucosamine-6-phosphate [3]): < 1e-05 s⁻¹
- self-cleavage kobs at 640 uM GlcN6P (glucosamine-6-phosphate [2]): < 1e-05 s⁻¹
- self-cleavage kobs at 10000 uM GlcN6P (glucosamine-6-phosphate [4]): < 1e-05 s⁻¹

Variant: AUAAAAGCGCCAGAACUACAGAAAUGUAGUUGACGAGGAGGAGGUUUAUCGAAUUUUCGUCGAAUGUCUCCAAA
- self-cleavage kobs at 40 uM GlcN6P (glucosamine-6-phosphate [1]): < 1e-05 s⁻¹

Variant: AUAAAAGCGCCAGAACUACAGAAAUGUAGUUGACGAGGAGGAGGUUUAUCGAAUUUUCGGUGGAUGACUUCAAA
- self-cleavage kobs at 40 uM GlcN6P (glucosamine-6-phosphate [1]): 4.32e-05 ± 1.7e-05 s⁻¹

Variant: AUAAAAGCGCCAGAACUACAGAAAUGUAGUUGACGAGGAGGAGGUUUAUCGAAUUUUCGGCAGAUUCCUCCAAA
- self-cleavage kobs at 40 uM GlcN6P (glucosamine-6-phosphate [1]): < 1e-05 s⁻¹
- self-cleavage kobs at 640 uM GlcN6P (glucosamine-6-phosphate [2]): < 1e-05 s⁻¹
- self-cleavage kobs at 2500 uM GlcN6P (glucosamine-6-phosphate [5]): < 1e-05 s⁻¹
- self-cleavage kobs at 10000 uM GlcN6P (glucosamine-6-phosphate [4]): < 1e-05 s⁻¹

Variant: AUAAAAGCGCCAGAACUACAGAAAUGUAGUUGACGAGGAGGAGGUUUAUCGAAUUUUCGCCGGAUGUCUCCAAA
- self-cleavage kobs at 40 uM GlcN6P (glucosamine-6-phosphate [1]): < 1e-05 s⁻¹
- self-cleavage kobs at 10000 uM GlcN6P (glucosamine-6-phosphate [4]): < 1e-05 s⁻¹

Variant: AUAAAAGCGCCAGAACUACAGAAAUGUAGUUGACGAGGAGGAGGUUUAUCGAAUUUUCGUCUGAUGCCUCCAAA
- self-cleavage kobs at 40 uM GlcN6P (glucosamine-6-phosphate [1]): < 1e-05 s⁻¹
- self-cleavage kobs at 160 uM GlcN6P (glucosamine-6-phosphate [3]): < 1e-05 s⁻¹
- self-cleavage kobs at 640 uM GlcN6P (glucosamine-6-phosphate [2]): < 1e-05 s⁻¹
- self-cleavage kobs at 2500 uM GlcN6P (glucosamine-6-phosphate [5]): < 1e-05 s⁻¹
- self-cleavage kobs at 10000 uM GlcN6P (glucosamine-6-phosphate [4]): < 1e-05 s⁻¹

Variant: AUAAAAGCGCCAGAACUACAGAAAUGUAGUUGACGAGGAGGAGGUUUAUCGAAUUUUCCGCGGAGGCCUCCAAA
- self-cleavage kobs at 40 uM GlcN6P (glucosamine-6-phosphate [1]): < 1e-05 s⁻¹
- self-cleavage kobs at 640 uM GlcN6P (glucosamine-6-phosphate [2]): < 1e-05 s⁻¹
- self-cleavage kobs at 10000 uM GlcN6P (glucosamine-6-phosphate [4]): < 1e-05 s⁻¹

Variant: AUAAAAGCGCCAGAACUACAGAAAUGUAGUUGACGAGGAGGAGGUUUAUCGAAUUUUCGGCAGAUGCCUCAAAA
- self-cleavage kobs at 40 uM GlcN6P (glucosamine-6-phosphate [1]): < 1e-05 s⁻¹
- self-cleavage kobs at 10000 uM GlcN6P (glucosamine-6-phosphate [4]): < 1e-05 s⁻¹

Variant: AUAAAAGCGCCAGAACUACAGAAAUGUAGUUGACGAGGAGGAGGUUUAUCGAAUUUUCGCCGGAUGCCUCGAAA
- self-cleavage kobs at 40 uM GlcN6P (glucosamine-6-phosphate [1]): < 1e-05 s⁻¹
- self-cleavage kobs at 160 uM GlcN6P (glucosamine-6-phosphate [3]): < 1e-05 s⁻¹
- self-cleavage kobs at 10000 uM GlcN6P (glucosamine-6-phosphate [4]): < 1e-05 s⁻¹

Variant: AUAAAAGCGCCAGAACUACAGAAAUGUAGUUGACGAGGAGGAGGUUUAUCGAAUUUUCUGCGGUUGCCUCCAAA
- self-cleavage kobs at 40 uM GlcN6P (glucosamine-6-phosphate [1]): < 1e-05 s⁻¹
- self-cleavage kobs at 640 uM GlcN6P (glucosamine-6-phosphate [2]): < 1e-05 s⁻¹
- self-cleavage kobs at 2500 uM GlcN6P (glucosamine-6-phosphate [5]): < 1e-05 s⁻¹
- self-cleavage kobs at 10000 uM GlcN6P (glucosamine-6-phosphate [4]): < 1e-05 s⁻¹

Variant: AUAAAAGCGCCAGAACUACAGAAAUGUAGUUGACGAGGAGGAGGUUUAUCGAAUUUUCUGAGGAUGCCUCCAAA
- self-cleavage kobs at 40 uM GlcN6P (glucosamine-6-phosphate [1]): < 1e-05 s⁻¹
- self-cleavage kobs at 160 uM GlcN6P (glucosamine-6-phosphate [3]): < 1e-05 s⁻¹
- self-cleavage kobs at 640 uM GlcN6P (glucosamine-6-phosphate [2]): < 1e-05 s⁻¹
- self-cleavage kobs at 10000 uM GlcN6P (glucosamine-6-phosphate [4]): < 1e-05 s⁻¹

Variant: AUAAAAGCGCCAGAACUACAGAAAUGUAGUUGACGAGGAGGAGGUUUAUCGAAUUUUCUGUGGAUGCCUCCAAA
- self-cleavage kobs at 40 uM GlcN6P (glucosamine-6-phosphate [1]): < 1e-05 s⁻¹
- self-cleavage kobs at 640 uM GlcN6P (glucosamine-6-phosphate [2]): < 1e-05 s⁻¹
- self-cleavage kobs at 10000 uM GlcN6P (glucosamine-6-phosphate [4]): < 1e-05 s⁻¹

Variant: AUAAAAGCGCCAGAACUACAGAAAUGUAGUUGACGAGGAGGAGGUUUAUCGAAUUUUCGGAGGACGCCUUCAAA
- self-cleavage kobs at 40 uM GlcN6P (glucosamine-6-phosphate [1]): < 1e-05 s⁻¹
- self-cleavage kobs at 10000 uM GlcN6P (glucosamine-6-phosphate [4]): < 1e-05 s⁻¹

Variant: AUAAAAGCGCCAGAACUACAGAAAUGUAGUUGACGAGGAGGAGGUUUAUCGAAUUUUCGGUGGAAGCCUCCAAA
- self-cleavage kobs at 40 uM GlcN6P (glucosamine-6-phosphate [1]): < 1e-05 s⁻¹
- self-cleavage kobs at 640 uM GlcN6P (glucosamine-6-phosphate [2]): < 1e-05 s⁻¹
- self-cleavage kobs at 10000 uM GlcN6P (glucosamine-6-phosphate [4]): < 1e-05 s⁻¹

Variant: AUAAAAGCGCCAGAACUACAGAAAUGUAGUUGACGAGGAGGAGGUUUAUCGAAUUUUCGUCAGAUGCCUUCAAA
- self-cleavage kobs at 40 uM GlcN6P (glucosamine-6-phosphate [1]): < 1e-05 s⁻¹
- self-cleavage kobs at 10000 uM GlcN6P (glucosamine-6-phosphate [4]): < 1e-05 s⁻¹

Variant: AUAAAAGCGCCAGAACUACAGAAAUGUAGUUGACGAGGAGGAGGUUUAUCGAAUUUUCGGUGAAUGCCUCCAAA
- self-cleavage kobs at 40 uM GlcN6P (glucosamine-6-phosphate [1]): < 1e-05 s⁻¹
- self-cleavage kobs at 160 uM GlcN6P (glucosamine-6-phosphate [3]): < 1e-05 s⁻¹
- self-cleavage kobs at 640 uM GlcN6P (glucosamine-6-phosphate [2]): < 1e-05 s⁻¹
- self-cleavage kobs at 10000 uM GlcN6P (glucosamine-6-phosphate [4]): < 1e-05 s⁻¹

Variant: AUAAAAGCGCCAGAACUACAGAAAUGUAGUUGACGAGGAGGAGGUUUAUCGAAUUUUCGGCAGCUGCCUCCAAA
- self-cleavage kobs at 40 uM GlcN6P (glucosamine-6-phosphate [1]): < 1e-05 s⁻¹
- self-cleavage kobs at 160 uM GlcN6P (glucosamine-6-phosphate [3]): < 1e-05 s⁻¹
- self-cleavage kobs at 640 uM GlcN6P (glucosamine-6-phosphate [2]): < 1e-05 s⁻¹
- self-cleavage kobs at 2500 uM GlcN6P (glucosamine-6-phosphate [5]): < 1e-05 s⁻¹
- self-cleavage kobs at 10000 uM GlcN6P (glucosamine-6-phosphate [4]): < 1e-05 s⁻¹

Variant: AUAAAAGCGCCAGAACUACAGAAAUGUAGUUGACGAGGAGGAGGUUUAUCGAAUUUUCGGGGGAUGCCUCGAAA
- self-cleavage kobs at 40 uM GlcN6P (glucosamine-6-phosphate [1]): 3.55e-05 ± 1.3e-05 s⁻¹
- self-cleavage kobs at 160 uM GlcN6P (glucosamine-6-phosphate [3]): 0.000119 ± 3e-05 s⁻¹
- self-cleavage kobs at 640 uM GlcN6P (glucosamine-6-phosphate [2]): 7.69e-05 ± 2.5e-05 s⁻¹
- self-cleavage kobs at 2500 uM GlcN6P (glucosamine-6-phosphate [5]): 4.16e-05 ± 1.6e-05 s⁻¹

Variant: AUAAAAGCGCCAGAACUACAGAAAUGUAGUUGACGAGGAGGAGGUUUAUCGAAUUUUCGUCGGUUGCCUCCAAA
- self-cleavage kobs at 40 uM GlcN6P (glucosamine-6-phosphate [1]): < 1e-05 s⁻¹
- self-cleavage kobs at 160 uM GlcN6P (glucosamine-6-phosphate [3]): < 1e-05 s⁻¹
- self-cleavage kobs at 2500 uM GlcN6P (glucosamine-6-phosphate [5]): < 1e-05 s⁻¹
- self-cleavage kobs at 10000 uM GlcN6P (glucosamine-6-phosphate [4]): < 1e-05 s⁻¹

Variant: AUAAAAGCGCCAGAACUACAGAAAUGUAGUUGACGAGGAGGAGGUUUAUCGAAUUUUCGGGGGACACCUCCAAA
- self-cleavage kobs at 40 uM GlcN6P (glucosamine-6-phosphate [1]): < 1e-05 s⁻¹
- self-cleavage kobs at 10000 uM GlcN6P (glucosamine-6-phosphate [4]): < 1e-05 s⁻¹

Variant: AUAAAAGCGCCAGAACUACAGAAAUGUAGUUGACGAGGAGGAGGUUUAUCGAAUUUUCGUGGGAUGCCUCCAAA
- self-cleavage kobs at 40 uM GlcN6P (glucosamine-6-phosphate [1]): < 1e-05 s⁻¹
- self-cleavage kobs at 2500 uM GlcN6P (glucosamine-6-phosphate [5]): < 1e-05 s⁻¹
- self-cleavage kobs at 10000 uM GlcN6P (glucosamine-6-phosphate [4]): < 1e-05 s⁻¹
